From patent US20250243261A1

Target: SARS-CoV-2 BQ.1.1 Spike RBD (SARS-CoV-2 BQ.1.1 variant)
Assay: BLI, IgG

Sequence of LY-1404 WT IgG (antibody) (VH): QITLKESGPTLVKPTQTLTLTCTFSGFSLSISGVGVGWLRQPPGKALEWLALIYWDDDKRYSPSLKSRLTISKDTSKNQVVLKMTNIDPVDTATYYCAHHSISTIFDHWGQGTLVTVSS
Sequence of LY-1404 WT IgG (antibody) (VL): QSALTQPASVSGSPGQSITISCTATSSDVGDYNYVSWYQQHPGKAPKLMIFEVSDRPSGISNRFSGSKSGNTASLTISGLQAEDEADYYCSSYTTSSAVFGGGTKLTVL

Substance: LY-1404 WT IgG (antibody)
- Kd: 1700 nM
